In patent US20210253706A1:

Tests used:
[1] = biological target: huICOS (UniProt Q9Y6W8); test: Octet (BLI), global 1:1 binding model
[2] = biological target: human PD-1 (human) (UniProt Q15116); test: Octet (BLI), global 1:1 binding model
[3] = biological target: cynomolgus PD-1 (Macaca fascicularis (cynomolgus)); test: Octet (BLI), global 1:1 binding model
[4] = biological target: cynomolgus ICOS (Macaca fascicularis (cynomolgus)); test: Octet (BLI), global 1:1 binding model
[5] = biological target: human ICOS expressed on cells (human) (UniProt Q9Y6W8); test: flow cytometry; blocking of 0.5 µg/mL ICOSL-mFc-Alex647 binding to HEK 293T cells expressing PD-1 and ICOS
Chain of human ICOS expressed on cells (human) (Q9Y6W8 21-199 limits assumed): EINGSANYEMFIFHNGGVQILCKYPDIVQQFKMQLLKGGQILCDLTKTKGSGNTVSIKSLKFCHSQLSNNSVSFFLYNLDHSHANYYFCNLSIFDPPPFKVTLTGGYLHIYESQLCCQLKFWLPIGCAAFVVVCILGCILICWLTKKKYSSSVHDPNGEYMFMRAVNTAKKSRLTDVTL

[6] = biological target: human PD-1 expressed on cells (human) (UniProt Q15116); test: flow cytometry; blocking of 0.1 µg/mL soluble PD-L2 (mFc-Alexa647) binding to HEK 293T cells expressing PD-1 and ICOS
Chain of human PD-1 expressed on cells (human) (Q15116 25-288 limits assumed): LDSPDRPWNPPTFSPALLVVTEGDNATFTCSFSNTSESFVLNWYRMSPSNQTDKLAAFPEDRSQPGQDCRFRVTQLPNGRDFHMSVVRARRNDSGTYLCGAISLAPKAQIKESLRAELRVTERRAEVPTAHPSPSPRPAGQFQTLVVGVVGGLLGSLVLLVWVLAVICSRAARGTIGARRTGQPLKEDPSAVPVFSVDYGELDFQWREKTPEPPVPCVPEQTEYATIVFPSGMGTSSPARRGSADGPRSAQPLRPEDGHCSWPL

[7] = biological target: human PD-1 expressed on cells (human) (UniProt Q15116); test: flow cytometry; blocking of 1 µg/mL PD-L1-mFc-Alexa647 binding to HEK 293T cells expressing PD-1 and ICOS

Chain of human PD-1 (human) (Q15116 25-170 limits assumed): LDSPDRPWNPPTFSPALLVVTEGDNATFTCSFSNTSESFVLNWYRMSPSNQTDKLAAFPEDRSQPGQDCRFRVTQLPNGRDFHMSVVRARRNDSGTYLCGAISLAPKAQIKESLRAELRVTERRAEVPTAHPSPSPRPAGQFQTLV
Chain of cynomolgus PD-1 (Macaca fascicularis (cynomolgus)) (Q15116 other isoform, or with tags, fused parts or gaps limits assumed): as the sequence (Q15116 25-170 limits assumed) above, with D2E, P10A, V19L, T35A, Q75R, T144A counted along it
Chain of huICOS (Q9Y6W8 21-140 limits assumed): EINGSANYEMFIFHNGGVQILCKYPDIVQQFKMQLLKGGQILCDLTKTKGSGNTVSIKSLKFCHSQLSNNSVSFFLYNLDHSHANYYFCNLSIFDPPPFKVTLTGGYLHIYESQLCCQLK
Chain of cynomolgus ICOS (Macaca fascicularis (cynomolgus)) (Q9Y6W8 21-140 H101R limits assumed): as the sequence (Q9Y6W8 21-140 limits assumed) above, with H81R counted along it

## XmAb23104 (bispecific antibody)
[1]
  Kd: 2.9 nM
[2]
  Kd: 2.8 nM
[3]
  Kd: 5.8 nM
[4]
  Kd: 2.6 nM
[5]
  EC10: 0.02 µg/mL
  EC90: 0.6 µg/mL
[6]
  EC10: 0.003 µg/mL
  EC90: 5.3 µg/mL
[7]
  EC90: 7.1 µg/mL
